± gives the standard deviation of the averaged measurements.
B1: library; a variant is named by its letters at N, in order (parent)
chain: GCUGUCACCGGUGCUUGGUACGUUAUAUUCAGCCGGUCUGAUGAGUCUNNNNNNAGACGAAACAGC

How the values were obtained:
(6R,S)-folinic acid [1] = variants of: B1; assay: normalized RNA/DNA level without ligand (relative to sTRSVctl = 100) (log10 (% of sTRSVctl)); HEK293T overexpressing SLC46A1; higher = less ribozyme self-cleavage, higher mRNA level; details: without (6R,S)-folinic acid; ligand present: no
Outline: (§1)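 Library plasmids carrying ribozyme switches linked to mCherry, or to eGFP in some ligand experiments, were transfected into HEK293T at 4 µg per 6-well well, with any ligand added 1 h earlier. Seventy-two hours on, total RNA was extracted with EDTA and reverse-transcribed, amplified, barcoded and sequenced. RNA level was RNA over DNA reads normalized to a spiked-in non-cleaving sequence or to the top sequences, then scaled and log-transformed. The top set was 25 sequences, the transform was ×100 and log10, and sequences needed ≥100 DNA reads.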

(6R,S)-folinic acid [2] = variants of: B1; assay: normalized RNA/DNA level with ligand (relative to sTRSVctl = 100) (log10 (% of sTRSVctl)); HEK293T overexpressing SLC46A1; ligand concentration (+) RNA-Seq: 6 mM; higher = less ribozyme self-cleavage, higher mRNA level; details: with (6R,S)-folinic acid; ligand present: yes
Outline: as §1

Variant	normalized RNA/DNA level without ligand (log10) ((6R,S)-folinic acid [1])	normalized RNA/DNA level with ligand (log10) ((6R,S)-folinic acid [2])
ACGGCC	2.117 ± 0.009	2.06 ± 0.056
CCGGCG	2.05 ± 0.025	2.05 ± 0.038
GCGGCG	2.07 ± 0.023	2.1 ± 0.061
UCGGCG	1.997 ± 0.011	2.05 ± 0.046
ACGGCG	2.015 ± 0.0037	2.0489 ± 0.00014
CCGGCU	2.08 ± 0.029	2.051 ± 0.013
GCGGCU	2.0832 ± 0.0008	2.05 ± 0.031
ACGGCU	2.048 ± 0.014	2.04 ± 0.044
CCGGGA	2.039 ± 0.0033	2.02 ± 0.054
GCGGGA	2.041 ± 0.0095	2.06 ± 0.023
UCGGGA	1.937 ± 0.012	2.03 ± 0.056
CCGGGC	2.102 ± 0.01	2.073 ± 0.0025
GCGGGC	1.95 ± 0.045	1.959 ± 0.017
UCGGGC	2.06 ± 0.021	2.03 ± 0.055
ACGGGC	2.097 ± 0.0034	2.09 ± 0.031
CCGGGG	1.985 ± 0.01	2.01 ± 0.049
GCGGGG	2.054 ± 0.0092	2.055 ± 0.017
UCGGGG	1.86 ± 0.027	1.99 ± 0.039
ACGGGG	1.997 ± 0.018	2.065 ± 0.02
CCGGGU	2.07 ± 0.036	2.05 ± 0.04

Variant	normalized RNA/DNA level without ligand (log10) ((6R,S)-folinic acid [1])	normalized RNA/DNA level with ligand (log10) ((6R,S)-folinic acid [2])
GCGGGU	2.05 ± 0.045	2.017 ± 0.012
UCGGGU	1.9958 ± 0.001	2.03 ± 0.038
ACGGGU	1.989 ± 0.0096	2.04 ± 0.034
CCGGUA	2.01 ± 0.038	2.009 ± 0.011
GCGGUA	1.98 ± 0.017	2.011 ± 0.014
UCGGUA	1.93 ± 0.029	1.985 ± 0.015
ACGGUA	1.9058 ± 0.0011	1.95 ± 0.029
CCGGUC	2.0714 ± 0.0011	2.03 ± 0.069
GCGGUC	2.06 ± 0.024	2.06 ± 0.056
UCGGUC	2.09 ± 0.025	2.06 ± 0.051
ACGGUC	2.088 ± 0.0078	2.06 ± 0.036
CCGGUG	2.04 ± 0.04	2.051 ± 0.0038
GCGGUG	2.032 ± 0.0067	2.07 ± 0.07
ACGGUG	1.924 ± 0.0096	2.003 ± 0.013
GCGGUU	2.07 ± 0.0088	2.02 ± 0.05
CCGUAA	1.981 ± 0.016	1.98 ± 0.032
CCGUAC	1.99 ± 0.019	2.014 ± 0.017
ACGUAC	2.018 ± 0.0052	2.02 ± 0.046
CCGUAG	1.93 ± 0.035	1.99 ± 0.022
UCGUAG	1.8378 ± 0.0006	2 ± 0.052

Variant	normalized RNA/DNA level without ligand (log10) ((6R,S)-folinic acid [1])	normalized RNA/DNA level with ligand (log10) ((6R,S)-folinic acid [2])
CCGUAU	2.016 ± 0.0098	2.022 ± 0.0084
GCGUAU	2.03 ± 0.026	2.06 ± 0.022
UCGUAU	1.97 ± 0.029	2 ± 0.07
ACGUAU	1.943 ± 0.005	2.02 ± 0.008
CCGUCA	2.04 ± 0.031	2.05 ± 0.038
GCGUCA	2.06 ± 0.025	2.08 ± 0.031
UCGUCA	2.045 ± 0.013	2.03 ± 0.045
ACGUCA	2.037 ± 0.0081	2.027 ± 0.0046
CCGUCC	2.06 ± 0.021	2.06 ± 0.039
GCGUCC	2.01 ± 0.0034	1.997 ± 0.0077
UCGUCC	2.064 ± 0.0091	2.0551 ± 0.00048
ACGUCC	2.03 ± 0.023	2 ± 0.068
CCGUCG	2.02 ± 0.034	2.021 ± 0.015
GCGUCG	2.042 ± 0.0035	2.07 ± 0.035
ACGUCG	2 ± 0.022	2.06 ± 0.014
CCGUCU	2.04 ± 0.0053	2.05 ± 0.061
GCGUCU	2.064 ± 0.0062	2.07 ± 0.034
UCGUCU	2.02 ± 0.035	2.04 ± 0.09

From the supplement of paper PMC6757056
